Tested on: Escherichia coli TOP10
Test: shrunken log2 fold change of peptide-encoding DNA abundance (4.5 h post-induction vs induction); higher = less antimicrobial activity (less host growth inhibition)
Settings: time post-induction: 4.5 h; library: site-saturation at positions 5, 18, 19, 20
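Note: peptides expressed intracellularly from a pBAD plasmid library in pooled LB shake-flask culture, induced with 0.3% L-arabinose, DNA abundance read by NGS, three biological replicates, DESeq2 with apeglm shrinkage.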

Row | Sequence | shrunken log2 fold change
1 | RRIRDRPPRLPRPRPRPKLTPRP | -0.0121
2 | RRIRDRPPRLPRPRPRPKLYPRP | 0.0658
3 | RRIRDRPPRLPRPRPRPKMDPRP | 0.0675
4 | RRIRDRPPRLPRPRPRPKMMPRP | -0.154
5 | RRIRDRPPRLPRPRPRPKNDPRP | -0.103
6 | RRIRDRPPRLPRPRPRPKNNPRP | -0.556
7 | RRIRDRPPRLPRPRPRPKPGPRP | 0.654
8 | RRIRDRPPRLPRPRPRPKRMPRP | 0.0969
9 | RRIRDRPPRLPRPRPRPKSHPRP | -0.204
10 | RRIRDRPPRLPRPRPRPKSVPRP | 0.0458
11 | RRIRDRPPRLPRPRPRPKVFPRP | 0.0612
12 | RRIRDRPPRLPRPRPRPKVKPRP | -0.337
13 | RRIRDRPPRLPRPRPRPKWAPRP | 0.0411
14 | RRIRDRPPRLPRPRPRPKWRPRP | 0.344
15 | RRIRDRPPRLPRPRPRPLAPPRP | 0.607
16 | RRIRDRPPRLPRPRPRPLATPRP | 1.1
17 | RRIRDRPPRLPRPRPRPLCVPRP | 0.248
18 | RRIRDRPPRLPRPRPRPLDEPRP | 0.034
19 | RRIRDRPPRLPRPRPRPLEGPRP | 0.0257
20 | RRIRDRPPRLPRPRPRPLHAPRP | 0.317
21 | RRIRDRPPRLPRPRPRPLHVPRP | -0.133
22 | RRIRDRPPRLPRPRPRPLILPRP | -0.096
23 | RRIRDRPPRLPRPRPRPLKPPRP | -0.00274
24 | RRIRDRPPRLPRPRPRPLKRPRP | -0.0492
25 | RRIRDRPPRLPRPRPRPLKYPRP | -0.529
26 | RRIRDRPPRLPRPRPRPLLEPRP | 0.31
27 | RRIRDRPPRLPRPRPRPLLKPRP | 0.437
28 | RRIRDRPPRLPRPRPRPLNFPRP | -0.139

Row | Sequence | shrunken log2 fold change
29 | RRIRDRPPRLPRPRPRPLNNPRP | -0.305
30 | RRIRDRPPRLPRPRPRPLNVPRP | -0.029
31 | RRIRDRPPRLPRPRPRPLPMPRP | 0.0543
32 | RRIRDRPPRLPRPRPRPLRPPRP | 1.15
33 | RRIRDRPPRLPRPRPRPLTEPRP | 0.236
34 | RRIRDRPPRLPRPRPRPLTFPRP | -0.212
35 | RRIRDRPPRLPRPRPRPLTLPRP | -0.0246
36 | RRIRDRPPRLPRPRPRPLTPPRP | 0.128
37 | RRIRDRPPRLPRPRPRPLVEPRP | 0.331
38 | RRIRDRPPRLPRPRPRPLVQPRP | 0.709
39 | RRIRDRPPRLPRPRPRPMCRPRP | -0.0461
40 | RRIRDRPPRLPRPRPRPMFLPRP | 0.0737
41 | RRIRDRPPRLPRPRPRPMFSPRP | -0.142
42 | RRIRDRPPRLPRPRPRPMFWPRP | 0.0751
43 | RRIRDRPPRLPRPRPRPMGNPRP | -0.107
44 | RRIRDRPPRLPRPRPRPMGTPRP | -0.106
45 | RRIRDRPPRLPRPRPRPMGWPRP | 0.476
46 | RRIRDRPPRLPRPRPRPMHHPRP | -0.146
47 | RRIRDRPPRLPRPRPRPMIMPRP | 0.387
48 | RRIRDRPPRLPRPRPRPMLKPRP | 0.111
49 | RRIRDRPPRLPRPRPRPMLMPRP | 0.348
50 | RRIRDRPPRLPRPRPRPMNFPRP | -0.285
51 | RRIRDRPPRLPRPRPRPMQFPRP | -0.0264
52 | RRIRDRPPRLPRPRPRPMRNPRP | 0.416
53 | RRIRDRPPRLPRPRPRPMSAPRP | -0.177
54 | RRIRDRPPRLPRPRPRPMSYPRP | -0.0376
55 | RRIRDRPPRLPRPRPRPMTCPRP | 0.0184

Source: the supplement of paper PMC9112550, “Optimization of the antimicrobial peptide Bac7 by deep mutational scanning” (BMC Biology, 2022)
